From paper PMC10516938, “Conformational dynamics of cohesin/Scc2 loading complex are regulated by Smc3 acetylation and ATP binding” (Nature Communications, 2023)
Positions count from the first letter of the chain named.

B1: Scc2 D369C (natural protein, S. cerevisiae, UniProt Q04002 1-1493, looked up)
chain: MSYPGKDKNIPGRIIEALEDLPLSYLVPKDGLAALVNAPMRVSLPFDKTIFTSADDGRDVNINVLGTANSTTSSIKNEAEKERLVFKRPSNFTSSANSVDYVPTNFLEGLSPLAQSVLSTHKGLNDSINIEKKSEIVSRPEAKHKLESVTSNAGNLSFNDNSSNKKTKTSTGVTMTQANLAEQYLNDLKNILDIVGFDQNSAEIGNIEYWLQLPNKKFVLTTNCLTKLQMTIKNITDNPQLSNSIEITWLLRLLDVMVCNIKFSKSSLKMGLDDSMLRYIALLSTIVLFNIFLLGKNDSNLHRESYIMEPVNFLSDLIESLKILTIEYGSLKIEFDTFQEALELLPKYIRNGPFLDDNVTAKLVYIFSCLLMNNDIEATTNIQFQSFWDNVKRISSDILVSLFGSFDQQRGFIIEELLSHIEKLPTKRIQKKLRKVGNQNIYITDFTFTLMSMLENINCYSFCNQMKDIAPENIDLLKNEYKKQEEFLFNIVEHINDTILERFFKNPSALRYVIDNFVQDLLLLISSPQWPVTEKILSSLLKRLLSVYSPSMQVSANIETICLQLIGNIGSTIFDIKCSTRDHEDNNLIKMINYPETLPHFFKSFEECIAYNETIKCRRSATRFLWNLRLGTILILEEYTKDAKEQIITVDNELKKILEQIKDGGLGPELENREADFSTIKLDYFSILHAFELLNLYDPYLKLILSLLAKDKIKLRSTAIKCLSMLASKDKVILSNPMVKETIHRRLNDSSASVKDAILDLVSINSSYFEFYQQINNNYNDDSIMVRKHVLRINEKMYDETNDIVTKVYVIARILMKIEDEEDNIIDMARLILLNRWILKVHEVLDQPEKLKEISSSVLLVMSRVAIMNEKCSQLFDLFLNFYLLNKEAHSKEAYDKITHVLTILTDFLVQKIVELNSDDTNEKNSIVDKQNFLNLLAKFADSTVSFLTKDHITALYPYMVSDEKSDFHYYILQVFRCTFEKLANFKQKFLYDLETTLLSRLPKMNVREIDEAMPLIWSVATHRHDTARVAKACSSCLSHLHPYINKANNEEAAIVVDGKLQRLIYLSTGFARFCFPKPSNDKIAFLQEGETLYEHITKCLLVLSKDKITHVIRRVAVKNLTKLCGNHPKLFNSRHVLHLLDKEFQSDQLDIKLVILESLYDLFLLEERKSVRNTGVNSTLSSNSILKKKLLKTNRVEFANDGVCSALATRFLDNILQLCLLRDLKNSLVAIRLLKLILKFGYTNPSHSIPTVIALFASTSQYIRHVAYELLEDLFEKYETLVFSSLSRGVTKAIHYSIHTDEKYYYKHDHFLSLLEKLCGTGKKNGPKFFKVLKRIMQSYLDDITDLTSTNSSVQKSIFVLCTNISNITFVSQYDLVSLLKTIDLTTDRLKEVIMDEIGDNVSSLSVSEEKLSGIILIQLSLQDLGTYLLHLYGLRDDVLLLDIVEESELKNKQLPAKKPDISKFSAQLENIEQYSSNGKLLTYFRKHVKDT
notes: Scc2, S. cerevisiae; source: S. cerevisiae W303, in vivo, whole-cell extract
B2: Scc2 T1175C (natural protein, S. cerevisiae, UniProt Q04002 1-1493, looked up)
chain: B1 chain with C369D, T1175C
notes: as for B1

How the values were obtained:
Smc3 K1004C E1155Q = biological target: T1, Smc3 K1004C E1155Q (S. cerevisiae, UniProt P47037 1-1230, K1004C | E1155Q); assay: cross-linking; in vivo BMOE cross-link of cysteine pairs in yeast cells arrested in late G1 by non-degradable Sic1(9m); Scc1-PK immunoprecipitated, western blot, band intensities quantified; details: partners not purified
T1 construct: Smc3, S. cerevisiae; also called EQ mutant version of Smc3^K1004C; source: S. cerevisiae W303, ectopically expressed, late G1 arrested cells, whole-cell extract
T1 sequence (looked up): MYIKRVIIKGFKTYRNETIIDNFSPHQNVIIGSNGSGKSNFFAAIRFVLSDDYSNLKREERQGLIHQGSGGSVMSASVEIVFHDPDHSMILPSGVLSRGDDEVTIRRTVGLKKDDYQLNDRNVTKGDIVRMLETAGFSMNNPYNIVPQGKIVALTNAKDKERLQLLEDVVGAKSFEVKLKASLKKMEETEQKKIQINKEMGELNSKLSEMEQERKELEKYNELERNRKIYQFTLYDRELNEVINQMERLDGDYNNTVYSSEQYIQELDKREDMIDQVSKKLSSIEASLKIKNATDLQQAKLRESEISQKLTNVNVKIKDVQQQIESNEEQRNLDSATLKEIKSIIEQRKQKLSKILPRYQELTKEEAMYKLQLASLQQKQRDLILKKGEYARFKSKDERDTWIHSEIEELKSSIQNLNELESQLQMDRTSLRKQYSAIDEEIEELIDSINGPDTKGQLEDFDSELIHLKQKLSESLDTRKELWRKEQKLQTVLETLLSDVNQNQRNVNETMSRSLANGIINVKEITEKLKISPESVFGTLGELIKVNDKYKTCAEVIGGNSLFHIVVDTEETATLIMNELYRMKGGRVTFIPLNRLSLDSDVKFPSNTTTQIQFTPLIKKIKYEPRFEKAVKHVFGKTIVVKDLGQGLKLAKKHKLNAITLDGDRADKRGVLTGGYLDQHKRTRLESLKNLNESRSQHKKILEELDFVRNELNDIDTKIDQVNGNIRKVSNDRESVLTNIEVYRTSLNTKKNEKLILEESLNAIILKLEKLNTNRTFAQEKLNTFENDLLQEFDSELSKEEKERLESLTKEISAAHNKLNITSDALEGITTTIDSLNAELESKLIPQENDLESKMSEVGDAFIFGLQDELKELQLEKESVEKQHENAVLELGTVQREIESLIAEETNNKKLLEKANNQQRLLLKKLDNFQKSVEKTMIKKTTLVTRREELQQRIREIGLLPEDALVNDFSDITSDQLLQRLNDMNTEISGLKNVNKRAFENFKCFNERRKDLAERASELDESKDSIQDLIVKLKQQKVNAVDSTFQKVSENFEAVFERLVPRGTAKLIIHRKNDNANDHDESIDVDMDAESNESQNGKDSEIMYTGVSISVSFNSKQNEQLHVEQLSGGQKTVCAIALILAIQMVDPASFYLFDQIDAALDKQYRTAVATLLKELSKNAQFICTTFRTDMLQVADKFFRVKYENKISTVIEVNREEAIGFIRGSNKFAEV

Smc3^QQ Q67C = biological target: T2, Smc3^QQ Q67C (S. cerevisiae, UniProt P47037 1-1230, Q67C | K112Q | K113Q); assay: as above; details: partners not purified
T2 construct: Smc3, S. cerevisiae; source: S. cerevisiae W303, late G1 arrested cells, whole-cell extract
T2 sequence (looked up): T1 sequence (looked up) with Q67C, K112Q, K113Q, C1004K, Q1155E

Row | Binder | fold change of the crosslink against wild-type Smc3 (K1004C) (Smc3 K1004C E1155Q) | crosslink relative to wild-type Smc3 (Smc3^QQ Q67C)
1 | B1 | ~10 fold | 
2 | B2 |  | ~10%
